Reference: doi:10.1101/2023.02.13.525685

Columns and labels:
[1] = target: RjoGlgAb (GT4 glycosyltransferase GlgAb from Rhodococcus jostii RHA1) (Rhodococcus jostii RHA1); experiment: SEC
[2] = target: RjoGlgAc (GT4 glycosyltransferase GlgAc from Rhodococcus jostii RHA1) (Rhodococcus jostii RHA1); experiment: SEC

Row | Substance | stoichiometry N [1] [subunits] | stoichiometry N [2]
1 | RjoGlgAb (GT4 glycosyltransferase GlgAb from Rhodococcus jostii RHA1) (enzyme) | > 15 | 
2 | RjoGlgAc (GT4 glycosyltransferase GlgAc from Rhodococcus jostii RHA1) (enzyme) |  | 2
